Here are results for seven molecules from patent US20140100172A1 (MALLINCKRODT, published 2014).

Where two headings read alike, the source gives them in different places. Square brackets hold non-standard residues; d marks the D form. * marks the point of attachment. 2Nal = N[C@@H](Cc1ccc2ccccc2c1)C(=O)O; NMeR = CN[C@@H](CCCNC(=N)N)C(=O)O; Dap = NC[C@H](N)C(=O)O; nal = not defined here; 125I = [125I]*

B2: human chemokine receptor type 4 (CXCR4) (receptor, UniProt P61073 1-352, looked up)
chain: MEGISIYTSDNYTEEMGSGDYDSMKEPCFREENANFNKIFLPTIYSIIFLTGIVGNGLVILVMGYQKKLRSMTDKYRLHLSVADLLFVITLPFWAVDAVANWYFGNFLCKAVHVIYTVNLYSSVLILAFISLDRYLAIVHATNSQRPRKLLAEKVVYVGVWIPALLLTIPDFIFANVSEADDRYICDRFYPNDLWVVVFQFQHIMVGLILPGIVILSCYCIIISKLSHSKGHQKRKALKTTVILILAFFACWLPYYIGISIDSFILLEIIKQGCEFENTVHKWISITEALAFFHCCLNPILYAFLGAKFKTSAQHALTSVSRGSSLKILSKGKRGGHSSVSTESESSSFHSS
notes: whole, on cells; also called CXCR4 receptor; CXCR4 chemokine receptor

For assay [1], the target named is B2. Nature of the assay: competition with 125I-CPCR4 tracer on CXCR4-expressing cells.
Assay [2] addresses T1, recombinant human SDF-1α (stromal cell-derived factor 1α) (human, UniProt P48061-2 22-89).
T1 construct: also called SFD-1α
The assay is described as follows: competitive radioligand binding on CXCR4-expressing cells.

Assay [3] has as its target B2. Nature of the assay: competition with 125I-CPCR4 tracer on CXCR4-expressing cells. The source holds these as a separate data set.
Assay [4] has as its target B2. The assay is described as follows: saturation radioligand binding, Jurkat and CMS5/CXCR4 cells.
In assay [5] the target is B2. The assay is described as follows: radioligand binding on Jurkat and CMS5/CXCR4 cells.
In assay [6] the target is B2. Nature of the assay: competition with 125I-CPCR4 tracer on CXCR4-expressing cells. This is another data set of the same source.
The target of assay [7] is B2. The description is as above. This is another data set of the same source.

B1: cyc[D-Tyr-Arg-(Me)Arg-Nal-Gly] (peptide)
peptide: cyclo([dY]R[NMeR][2Nal]G)
notes: also called OD3
Consider B1, for which, in assay [1], the IC50 (commonly the concentration at which inhibition is half-maximal) is 31 nM.

On to B2, for which the binding result in assay [2] was “binds”.

B3: cyc[D-Tyr-(Me)Arg-Arg-Nal-Gly] (peptide)
peptide: cyclo([dY][NMeR]R[2Nal]G)
SMILES: CN1C(=O)[C@@H](Cc2ccc(O)cc2)NC(=O)CNC(=O)[C@H](Cc2ccc3ccccc3c2)NC(=O)[C@H](CCCNC(=N)N)NC(=O)[C@@H]1CCCNC(=N)N
notes: also called OD1
On to B3, for which the IC50 in assay [1] amounted to 23 nM.

B4: cyc[D-Tyr-Arg-Arg-nal-Ala-Gly] (peptide)
peptide: cyclo([dY]RR[nal]AG)
modifications: reading uncertain; also: printed as cyc[D-Tyr-Arg-Arg-nal-Ala-Gly]
notes: differs by nal against Nal; also called BL 40
With B4, the IC50 in assay [3] was ~1000 nM.

B5: 125I-CPCR4 (peptide)
peptide: cyclo([dY](125I)RR[2Nal]G)
notes: also called radiolabeled CPCR4
Consider B5, for which the Kd – broadly, a measure of binding affinity in units of concentration – in assay [4] was 0.3 to 0.4 nM; in assay [5], 0.4 nM.

B6: cyc[D-Tyr-His-Arg-Nal-Gly] (peptide)
peptide: cyclo([dY]HR[2Nal]G)
SMILES: N=C(N)NCCC[C@@H]1NC(=O)[C@H](Cc2c[nH]cn2)NC(=O)[C@@H](Cc2ccc(O)cc2)NC(=O)CNC(=O)[C@H](Cc2ccc3ccccc3c2)NC1=O
The molecule B6 displayed a half-maximal inhibitory concentration (IC50) in assay [6] of 30 nM.

B7: cyc[D-Tyr-Arg-Arg-Nal-Dap(FP)-Gly] (peptide)
peptide: cyclo([dY]RR[2Nal][Dap]G)
modifications: not fully specified (residue 5); printed as cyc[D-Tyr-Arg-Arg-Nal-Dap(FP)-Gly]
notes: also called BL 58; BL58
B7: the IC50 in assay [7] is ~1000 nM.
